Reference: paper PMC10824102 (2024)

Assays:
[1] = biological target: T1, full-length 6x-His-tagged human G3BP1 (human, UniProt Q13283 1-466); test: SPR
[2] = biological target: T1, full-length 6x-His-tagged human G3BP1; test: FRET; competition with FAM-labeled USP10 FGDF peptide probe

T1 sequence (Q13283 whole entry): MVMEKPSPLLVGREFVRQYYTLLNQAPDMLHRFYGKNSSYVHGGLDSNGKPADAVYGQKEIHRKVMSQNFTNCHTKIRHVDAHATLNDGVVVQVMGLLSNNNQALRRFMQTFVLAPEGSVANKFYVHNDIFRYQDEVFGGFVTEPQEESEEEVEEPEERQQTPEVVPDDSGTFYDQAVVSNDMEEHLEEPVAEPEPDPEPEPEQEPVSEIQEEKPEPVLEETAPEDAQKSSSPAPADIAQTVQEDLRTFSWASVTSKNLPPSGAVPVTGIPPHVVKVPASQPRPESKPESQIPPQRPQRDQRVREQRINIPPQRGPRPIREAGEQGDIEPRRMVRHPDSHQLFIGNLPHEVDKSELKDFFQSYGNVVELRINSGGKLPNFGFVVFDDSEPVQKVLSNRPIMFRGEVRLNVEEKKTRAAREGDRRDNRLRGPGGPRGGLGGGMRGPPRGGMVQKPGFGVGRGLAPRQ

LTFGDFDEHEVDALASGITFGDFDD [nsP3 25-mer peptide]
Kd [1]: 200 nM | IC50 [2]: 3100 nM
